Earlier results on 1 substance are cited in publication PMC11329504, “Identification of novel small molecule-based strategies of COL7A1 upregulation and readthrough activity for the treatment of recessive dystrophic epidermolysis bullosa” (Scientific Reports, 2024).

For this data set, the target named is Laminin 5 (Homo sapiens) (UniProt Q16787).

Sequence of Collagen VII NC1 NC1 (Q02388 17-1253): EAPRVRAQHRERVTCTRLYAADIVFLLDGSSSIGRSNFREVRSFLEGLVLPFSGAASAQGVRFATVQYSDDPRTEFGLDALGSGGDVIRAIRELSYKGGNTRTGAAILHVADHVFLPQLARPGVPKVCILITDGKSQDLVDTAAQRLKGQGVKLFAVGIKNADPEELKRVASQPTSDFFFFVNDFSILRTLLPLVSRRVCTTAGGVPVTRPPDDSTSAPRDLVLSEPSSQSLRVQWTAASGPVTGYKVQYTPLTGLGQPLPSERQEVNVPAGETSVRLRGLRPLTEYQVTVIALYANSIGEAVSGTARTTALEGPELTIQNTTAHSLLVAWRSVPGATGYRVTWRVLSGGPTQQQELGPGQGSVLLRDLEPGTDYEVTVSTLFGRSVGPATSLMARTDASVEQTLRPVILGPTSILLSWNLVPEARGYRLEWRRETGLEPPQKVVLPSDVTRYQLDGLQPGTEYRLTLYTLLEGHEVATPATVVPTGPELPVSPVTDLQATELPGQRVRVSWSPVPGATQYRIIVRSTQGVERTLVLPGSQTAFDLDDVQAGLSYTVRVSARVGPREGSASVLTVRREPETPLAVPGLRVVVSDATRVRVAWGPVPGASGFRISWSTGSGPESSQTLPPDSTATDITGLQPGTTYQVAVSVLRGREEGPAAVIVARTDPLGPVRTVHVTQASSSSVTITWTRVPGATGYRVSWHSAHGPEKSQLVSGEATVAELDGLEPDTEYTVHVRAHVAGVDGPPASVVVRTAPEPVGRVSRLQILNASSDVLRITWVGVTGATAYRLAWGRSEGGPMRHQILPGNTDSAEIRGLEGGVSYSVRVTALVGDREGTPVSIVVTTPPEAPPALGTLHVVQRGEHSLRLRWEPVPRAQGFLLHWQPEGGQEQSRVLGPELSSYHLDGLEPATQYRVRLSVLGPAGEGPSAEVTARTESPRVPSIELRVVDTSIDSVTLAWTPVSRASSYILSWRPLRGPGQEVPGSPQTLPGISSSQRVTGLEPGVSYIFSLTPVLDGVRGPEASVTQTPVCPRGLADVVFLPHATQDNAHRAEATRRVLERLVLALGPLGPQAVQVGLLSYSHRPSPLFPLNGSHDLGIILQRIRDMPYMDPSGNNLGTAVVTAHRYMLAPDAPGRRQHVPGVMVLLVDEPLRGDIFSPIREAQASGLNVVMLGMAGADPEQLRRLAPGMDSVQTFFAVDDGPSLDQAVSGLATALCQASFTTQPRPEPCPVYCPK

Take “Collagen VII NC1 NC1 (from UniProt Q02388)”: the Kd was 48 nM.

What is called Kd is the free concentration of one partner at which half of the binding sites on the other are occupied at equilibrium, for simple one-to-one binding.
